Experimental data published in patent US20140249468.

Measured: fluorescence activation (recovery of Cy5.5 fluorescence on cleavage)

activated recombinant human MMP-13
>25-fold vs. without MMP: MMP-P67 | MMP-P0 | MMP-P12 | MMP-P24 | MMP-P4
